# Data reported in patent US20150231220A1 (GREEN CROSS, published 2015).
# How the values were obtained:
# [1] = target: EGFR coated on the plate (competitive binding test) (UniProt P00533); assay: competitive ELISA on plate-coated EGFR; competitor GC1118 at […]; antibody:ligand molar ratio 1:10^4; remaining antibody binding
# [2] = target: EGFR coated on the plate (competitive binding test) (UniProt P00533); assay: competitive ELISA on plate-coated EGFR; competitor GC1118 at […]; antibody:ligand molar ratio 1:10^5; remaining antibody binding
# [3] = target: EGFR coated on the plate (competitive binding test) (UniProt P00533); assay: competitive ELISA on plate-coated EGFR; competitor cetuximab at […]; antibody:ligand molar ratio 1:10^4; remaining antibody binding
# [4] = target: EGFR coated on the plate (competitive binding test) (UniProt P00533); assay: competitive ELISA on plate-coated EGFR; competitor cetuximab at […]; antibody:ligand molar ratio 1:10^5; remaining antibody binding
# [5] = target: T1, EGFR coated on the plate (competitive binding test) (UniProt P00533 25-645, limits assumed); assay: competitive ELISA on plate-coated EGFR; competitor GC1118 at 1.5 nM; antibody:ligand molar ratio 1:10^4; remaining antibody binding
# [6] = target: T1, EGFR coated on the plate (competitive …); assay: competitive ELISA on plate-coated EGFR; competitor GC1118 at 1.5 nM; antibody:ligand molar ratio 1:10^5; remaining antibody binding
# [7] = target: T1, EGFR coated on the plate (competitive …); assay: competitive ELISA on plate-coated EGFR; competitor cetuximab at 1.5 nM; antibody:ligand molar ratio 1:10^4; remaining antibody binding
# [8] = target: T1, EGFR coated on the plate (competitive …); assay: competitive ELISA on plate-coated EGFR; competitor cetuximab at 1.5 nM; antibody:ligand molar ratio 1:10^5; remaining antibody binding
Antibody binding (%) [1] [%],Antibody binding (%) [2] [%],Antibody binding (%) [3] [%],Antibody binding (%) [4] [%],Antibody binding (%) [5] [%],Antibody binding (%) [6] [%],Antibody binding (%) [7] [%],Antibody binding (%) [8] [%],Molecule
99.6,99.9,96.6,99.9,,,,,Amphiregulin (from UniProt P15514 101-198) (ligand)
,,,,40.4,18.9,80.2,51.1,"β-Cellulin (ligand, human, UniProt P35070 32-111, looked up, also called BTC; betacellulin) DGNSTRSPETNGLLCGDPEENCAATTTQSKRKGHFSRCPKQYKHYCIKGRCRFVVAEQTPSCVCDEGYIGARCERVDLFY"
,,,,65.1,31.2,96.2,76.1,"Heparin-binding EGF-like growth factor (ligand, human, UniProt Q99075 63-148, looked up, also called HB-EGF) DLQEADLDLLRVTLSSKPQALATPNKEEHGKRKKKGKGLGKKRDPCLRKYKDFCIHGECKYVKELRAPSCICHPGYHGERCHGLSL"
